# Measured values as given in US20110287512.
# Experiments:
# [1] = test system: ZFP7263 linker TYPRPLLAKP (artificial)
# [2] = test system: ZFP7263 linker TPNRCPPTKP (artificial)
# [3] = test system: ZFP7263 linker TGGGGSQKP (artificial)
# [4] = test system: ZFP7263 linker TPRPPIPKP (artificial)
# [5] = test system: ZFP7263 linker LRQKDERP (artificial)
# [6] = test system: ZFP7263 linker TGEGGKP (artificial)
# [7] = test system: ZFP7263 linker TPLCQRPMKQKP (artificial)
# [8] = test system: ZFP7263 (host, center linker TGSQKP) (artificial)
# [9] = test system: ZFP7263 linker TQRPQIPPKP (artificial)
# [10] = test system: ZFP7264 linker TLPLPRPKP center linker F2-F3 TGSQKP replaced by TLPLPRPKP (artificial); test: ELONA; conditions: normalized ELISA score
# [11] = test system: ZFP7264 linker TGLPKPKP center linker F2-F3 TGSQKP replaced by TGLPKPKP (artificial); test: ELONA; conditions: normalized ELISA score
# [12] = test system: ZFP7264 linker TGGGGSQKP center linker F2-F3 TGSQKP replaced by TGGGGSQKP (artificial); test: ELONA; conditions: normalized ELISA score
# [13] = test system: ZFP7264 linker TSRPRPKP center linker F2-F3 TGSQKP replaced by TSRPRPKP (artificial); test: ELONA; conditions: normalized ELISA score
# [14] = test system: ZFP7264 linker TKHGTPKHREDKP center linker F2-F3 TGSQKP replaced by TKHGTPKHREDKP (artificial); test: ELONA; conditions: normalized ELISA score
# [15] = test system: ZFP7264 linker TLPPCFRPKP center linker F2-F3 TGSQKP replaced by TLPPCFRPKP (artificial); test: ELONA; conditions: normalized ELISA score
# [16] = test system: ZFP7264 linker 1e center linker F2-F3 TGSQKP replaced by TVPRPTPPKP (artificial); test: ELONA; conditions: normalized ELISA score
# [17] = test system: ZFP7264 (host, center linker TGSQKP) (artificial); test: ELONA; conditions: normalized ELISA score
# [18] = test system: ZFP7264 linker LRQKDERP center linker F2-F3 TGSQKP replaced by LRQKDERP (artificial); test: ELONA; conditions: normalized ELISA score
# [19] = test system: ZFP7264 linker TGEGGKP center linker F2-F3 TGSQKP replaced by TGEGGKP (artificial); test: ELONA; conditions: normalized ELISA score
# [20] = test system: ZFP7264 linker TKHGTPKHREDKP (artificial)
# [21] = test system: ZFP7264 linker 1e (artificial)
# [22] = test system: ZFP7264 linker TLPPCFRPKP (artificial)
# [23] = test system: ZFP7264 linker TLPLPRPKP (artificial)
# [24] = test system: ZFP7264 linker TGEGGKP (artificial)
# [25] = test system: ZFP7264 (host, center linker TGSQKP) (artificial)
# [26] = test system: ZFP7264 linker TSRPRPKP (artificial)
# [27] = test system: ZFP7264 linker TGGGGSQKP (artificial)
# [28] = test system: ZFP7264 linker LRQKDERP (artificial)
# [29] = test system: ZFP7264 linker TGLPKPKP (artificial)
# [30] = test system: ZFN7264 linker TGLPKPKP (artificial); test: cell_activity; conditions: yeast, paired with 7263 ZFN
# [31] = test system: ZFN7264 linker TGGGGSQKP (artificial); test: cell_activity; conditions: yeast, paired with 7263 ZFN
# [32] = test system: ZFN7264 linker 1e center linker F2-F3 TGSQKP replaced by TVPRPTPPKP (artificial); test: cell_activity; conditions: normalized yeast MEL-1 score
# [33] = test system: ZFN7264 (host) (artificial); test: cell_activity; conditions: yeast, paired with 7263 ZFN
# [34] = test system: ZFN7264 linker TSRPRPKP (artificial); test: cell_activity; conditions: yeast, paired with 7263 ZFN
# [35] = test system: ZFP8196 linker 2d center linker F2-F3 TGEKP replaced by TLAPRPYRPPKP (artificial); test: ELONA; conditions: normalized ELISA score
# [36] = test system: ZFP8196 linker TCPRPPTRKP center linker F2-F3 TGEKP replaced by TCPRPPTRKP (artificial); test: ELONA; conditions: normalized ELISA score
# [37] = test system: ZFP8196 linker TVSPAPCRSKP center linker F2-F3 TGEKP replaced by TVSPAPCRSKP (artificial); test: ELONA; conditions: normalized ELISA score
# [38] = test system: ZFP8196 linker TASCPRPFRPPKP center linker F2-F3 TGEKP replaced by TASCPRPFRPPKP (artificial); test: ELONA; conditions: normalized ELISA score
# [39] = test system: ZFP8196 linker TGGGGSGGSQKP (flexible) center linker F2-F3 TGEKP replaced by TGGGGSGGSQKP (artificial); test: ELONA; conditions: normalized ELISA score
# [40] = test system: ZFP8196 linker 2e center linker F2-F3 TGEKP replaced by TPGGKSSRTDRNKP (artificial); test: ELONA; conditions: normalized ELISA score
# [41] = test system: ZFP8196 linker 1f center linker F2-F3 TGEKP replaced by TYPRPIAAKP (artificial); test: ELONA; conditions: normalized ELISA score
# [42] = test system: ZFP8196 (host, center linker TGEKP) (artificial); test: ELONA; conditions: ELISA normalized to host on 0-bp gap target (reference)
# [43] = test system: ZFP8196 linker 1c center linker F2-F3 TGEKP replaced by THPRAPIPKP (artificial); test: ELONA; conditions: normalized ELISA score
# [44] = test system: ZFP8196 linker TPDRPISTCKP center linker F2-F3 TGEKP replaced by TPDRPISTCKP (artificial); test: ELONA; conditions: normalized ELISA score
# [45] = test system: ZFP8196 linker TPSHTPRPKP center linker F2-F3 TGEKP replaced by TPSHTPRPKP (artificial); test: ELONA; conditions: normalized ELISA score
# [46] = test system: ZFP8196 linker TGGGGSQKP center linker F2-F3 TGEKP replaced by TGGGGSQKP (artificial); test: ELONA; conditions: normalized ELISA score
# [47] = test system: ZFP8196 linker TGEGGKP center linker F2-F3 TGEKP replaced by TGEGGKP (artificial); test: ELONA; conditions: normalized ELISA score
# [48] = test system: ZFP8196 linker TPGLHRPKP center linker F2-F3 TGEKP replaced by TPGLHRPKP (artificial); test: ELONA; conditions: normalized ELISA score
# [49] = test system: ZFP8196 linker TPDAPKPKP center linker F2-F3 TGEKP replaced by TPDAPKPKP (artificial); test: ELONA; conditions: normalized ELISA score
# [50] = test system: ZFP8196 linker TGYSIPRPKP center linker F2-F3 TGEKP replaced by TGYSIPRPKP (artificial); test: ELONA; conditions: normalized ELISA score
# [51] = test system: ZFP8196 linker TEPRAKPPKP center linker F2-F3 TGEKP replaced by TEPRAKPPKP (artificial); test: ELONA; conditions: normalized ELISA score
# [52] = test system: ZFP8196 linker TGSLRPYRRPKP center linker F2-F3 TGEKP replaced by TGSLRPYRRPKP (artificial); test: ELONA; conditions: normalized ELISA score
# [53] = test system: ZFP8196 linker TNTTRPYRPPKP center linker F2-F3 TGEKP replaced by TNTTRPYRPPKP (artificial); test: ELONA; conditions: normalized ELISA score
# [54] = test system: ZFP8196 linker TSSPRSNAKP center linker F2-F3 TGEKP replaced by TSSPRSNAKP (artificial); test: ELONA; conditions: normalized ELISA score
# [55] = test system: ZFP8196 linker TSINRPFRRPKP center linker F2-F3 TGEKP replaced by TSINRPFRRPKP (artificial); test: ELONA; conditions: normalized ELISA score
# [56] = test system: ZFP8196 linker TGEARPYRPPKP center linker F2-F3 TGEKP replaced by TGEARPYRPPKP (artificial); test: ELONA; conditions: normalized ELISA score
# [57] = test system: ZFP8196 linker LRQKDGGGSERP (Kim, Pabo) center linker F2-F3 TGEKP replaced by LRQKDGGGSERP (artificial); test: ELONA; conditions: normalized ELISA score
# [58] = test system: ZFP8196 linker 1d center linker F2-F3 TGEKP replaced by TPNRRPAPKP (artificial); test: ELONA; conditions: normalized ELISA score
# [59] = test system: ZFP8196 linker LRQKDERP center linker F2-F3 TGEKP replaced by LRQKDERP (artificial); test: ELONA; conditions: normalized ELISA score
# [60] = test system: ZFP8196 linker 2f center linker F2-F3 TGEKP replaced by TPNPHRRTDPSHKP (artificial); test: ELONA; conditions: normalized ELISA score
# [61] = test system: ZFP8196 linker TSPRLPAPKP center linker F2-F3 TGEKP replaced by TSPRLPAPKP (artificial); test: ELONA; conditions: normalized ELISA score
# [62] = test system: ZFP8196 linker TETTRPFRPPKP center linker F2-F3 TGEKP replaced by TETTRPFRPPKP (artificial); test: ELONA; conditions: normalized ELISA score
sequence,measurement,setting,value
TTAGCCACTCTGATTGGAAGTGTATC (double strand) [7263 target gap AT],binding signal (normalized ELISA),[1],0.01
same,binding signal (normalized ELISA),[2],0.02
same,binding signal (normalized ELISA),[3],0.01
same,binding signal (normalized ELISA),[4],0.01
same,binding signal (normalized ELISA),[5],0.01
same,binding signal (normalized ELISA),[6],0.01
same,binding signal (normalized ELISA),[7],0.05
same,binding signal (normalized ELISA),[8],0.01
same,binding signal (normalized ELISA),[9],0.02
TTAGTTAAAGCGTGCTCCGAATATC (double strand) [7264 target gap T],binding signal,[10],1.36
same,binding signal,[11],0.86
same,binding signal,[12],0.17
same,binding signal,[13],2.07
same,binding signal,[14],0.01
same,binding signal,[15],2.72
same,binding signal,[16],2.55
same,binding signal,[17],0
same,binding signal,[18],0.1
same,binding signal,[19],0.08
TTAGTTAAAGCGTAGCTCCGAATATC (double strand) [7264 target gap TA],binding signal (normalized ELISA),[20],0
same,binding signal (normalized ELISA),[21],0.05
same,binding signal (normalized ELISA),[22],0.06
same,binding signal (normalized ELISA),[23],0.03
same,binding signal (normalized ELISA),[24],0.02
same,binding signal (normalized ELISA),[25],0
same,binding signal (normalized ELISA),[26],0.03
same,binding signal (normalized ELISA),[27],0.03
same,binding signal (normalized ELISA),[28],0.02
same,binding signal (normalized ELISA),[29],0.02
AAAGCGTGCTCCG (double strand) [7264 yeast half-site gap T],activity (normalized MEL-1),[30],0.79
same,activity (normalized MEL-1),[31],0.34
same,activity,[32],2.34
same,activity (normalized MEL-1),[33],0.06
same,activity (normalized MEL-1),[34],3.38
TTAGTTAAAGCGCTGCTCCGAATATC (double strand) [7264 target gap CT],binding signal (normalized ELISA),[20],0
same,binding signal (normalized ELISA),[21],0.06
same,binding signal (normalized ELISA),[22],0.05
same,binding signal (normalized ELISA),[23],0.03
same,binding signal (normalized ELISA),[24],0.03
same,binding signal (normalized ELISA),[25],0
same,binding signal (normalized ELISA),[26],0.03
same,binding signal (normalized ELISA),[27],0.07
same,binding signal (normalized ELISA),[28],0.02
same,binding signal (normalized ELISA),[29],0.02
TTAGATAAACTGCAAAAGGCTATC (double strand) [8196 target 0-bp gap],binding signal,[35],0.005
same,binding signal,[36],0
same,binding signal,[37],0.01
same,binding signal,[38],0.01
same,binding signal,[39],0.019
same,binding signal,[40],0.005
same,binding signal,[41],0.01
same,binding signal,[42],1
same,binding signal,[43],0
same,binding signal,[44],0.01
same,binding signal,[45],0.02
same,binding signal,[46],0
same,binding signal,[47],0.1
same,binding signal,[48],0.04
same,binding signal,[49],0.02
same,binding signal,[50],0.01
same,binding signal,[51],0.01
same,binding signal,[52],0.001
same,binding signal,[53],0.001
same,binding signal,[54],0.01
same,binding signal,[55],0.01
same,binding signal,[56],0.001
same,binding signal,[57],0.01
same,binding signal,[58],0
same,binding signal,[59],0.01
same,binding signal,[60],0.003
same,binding signal,[61],0.01
same,binding signal,[62],0.001
